Experimental data reported in patent US20250177530A1, “MOLECULES THAT BIND TO ENPP1 POLYPEPTIDES” (UNIVERSITY OF PITTSBURGH - OF THE COMMONWEALTH SYSTEM OF …, priority 2022, published 2025).

What was measured:
[1] = target: human ENPP1 on the cell surface (293T-ENPP1 cells, HepG2 cells) (human) (UniProt P22413); assay: flow cytometry on 293T-ENPP1 cells, APC-A against SSC-A
[2] = target: human ENPP1 on the cell surface (293T-ENPP1 cells, HepG2 cells) (human) (UniProt P22413); assay: flow cytometry on HepG2 cells, APC-A against SSC-A

human ENPP1 on the cell surface (293T-ENPP1 cells, HepG2 cells) (human), sequence (P22413 whole entry): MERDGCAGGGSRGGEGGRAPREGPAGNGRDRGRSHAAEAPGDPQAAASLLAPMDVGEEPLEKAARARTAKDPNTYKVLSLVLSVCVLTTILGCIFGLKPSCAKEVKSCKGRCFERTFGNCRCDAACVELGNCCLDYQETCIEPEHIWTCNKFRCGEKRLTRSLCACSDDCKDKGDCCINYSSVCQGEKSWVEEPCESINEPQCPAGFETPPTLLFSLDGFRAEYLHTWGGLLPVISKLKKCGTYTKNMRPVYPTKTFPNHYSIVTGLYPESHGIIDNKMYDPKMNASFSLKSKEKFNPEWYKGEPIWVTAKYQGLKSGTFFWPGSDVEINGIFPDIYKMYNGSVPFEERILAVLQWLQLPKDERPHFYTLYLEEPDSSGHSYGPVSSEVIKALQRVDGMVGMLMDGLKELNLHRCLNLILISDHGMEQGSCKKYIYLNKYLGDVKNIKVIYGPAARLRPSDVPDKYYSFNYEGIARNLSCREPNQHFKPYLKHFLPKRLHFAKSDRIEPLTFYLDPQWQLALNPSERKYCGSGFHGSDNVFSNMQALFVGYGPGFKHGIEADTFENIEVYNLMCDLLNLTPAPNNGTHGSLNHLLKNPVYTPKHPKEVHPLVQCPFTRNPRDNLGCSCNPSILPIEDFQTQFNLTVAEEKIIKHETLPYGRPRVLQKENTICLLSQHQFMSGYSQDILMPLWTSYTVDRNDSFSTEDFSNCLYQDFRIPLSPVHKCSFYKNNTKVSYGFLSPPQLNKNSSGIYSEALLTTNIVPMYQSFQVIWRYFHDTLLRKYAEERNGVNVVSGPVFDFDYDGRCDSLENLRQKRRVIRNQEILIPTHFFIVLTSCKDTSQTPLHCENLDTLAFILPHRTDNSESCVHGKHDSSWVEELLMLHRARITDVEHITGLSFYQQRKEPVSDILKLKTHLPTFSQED

percent of cells in the APC-positive gate [1]: 0.4% | percent of cells in the APC-positive gate [2]: 0.4%
Substance: Isotype Ctrl (antibody)
